Reference: US20240325555A1 (LANOVA MEDICINES, published 2024)

T1: human LIV-1 (human, UniProt Q13433 29-755)
T1 sequence (looked up): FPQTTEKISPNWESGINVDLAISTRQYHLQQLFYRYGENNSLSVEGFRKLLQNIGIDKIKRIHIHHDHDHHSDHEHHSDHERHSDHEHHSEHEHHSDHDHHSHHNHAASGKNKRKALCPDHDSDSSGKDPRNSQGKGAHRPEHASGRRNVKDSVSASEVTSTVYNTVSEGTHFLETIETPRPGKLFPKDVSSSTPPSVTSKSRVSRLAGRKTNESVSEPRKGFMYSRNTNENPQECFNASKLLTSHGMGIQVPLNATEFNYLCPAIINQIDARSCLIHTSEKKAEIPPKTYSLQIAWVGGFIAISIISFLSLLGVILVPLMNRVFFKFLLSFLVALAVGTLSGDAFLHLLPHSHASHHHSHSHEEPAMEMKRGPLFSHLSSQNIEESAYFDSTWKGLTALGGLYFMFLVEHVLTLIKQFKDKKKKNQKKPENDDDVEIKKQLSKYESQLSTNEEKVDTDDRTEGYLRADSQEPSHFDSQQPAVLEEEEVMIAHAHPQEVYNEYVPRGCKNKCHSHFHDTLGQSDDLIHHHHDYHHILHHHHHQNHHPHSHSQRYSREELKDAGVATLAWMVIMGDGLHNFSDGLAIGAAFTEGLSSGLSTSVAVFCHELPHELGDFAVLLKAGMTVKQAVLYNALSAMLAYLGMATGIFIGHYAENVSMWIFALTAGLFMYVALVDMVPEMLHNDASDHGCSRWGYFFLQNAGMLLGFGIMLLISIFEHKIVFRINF


How the values were obtained:
[1] = target: T1, human LIV-1; assay: cell-based or functional assay
[2] = target: T1, human LIV-1; assay: cell-based or functional assay; remark: listed apart in the source
[3] = target: T1, human LIV-1; assay: cell-based or functional assay; remark: listed apart in the source
[4] = target: T1, human LIV-1; assay: FACS, HEK293/H_LIV-1 cells
Outline: (§1)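 HEK293 cells over-expressing human or cyno LIV-1 incubated with chimeric Abs (from 100 nM, 5-fold dilutions, 8 points) for 60 min at 4 °C, then fluorescent secondary antibody 30 min at 4 °C; washes in 2% FBS/PBS. Binding read by flow cytometry; EC50 from the titration curve.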

[5] = target: cynomolgus LIV-1 (cynomolgus, UniProt A0A2K5WH46 30-741); assay: FACS, HEK293/Cyno_LIV-1 cells
Outline: as §1

[6] = target: T1, human LIV-1; assay: cell-based or functional assay; remark: listed apart in the source
[7] = target: T1, human LIV-1; assay: FACS, HEK293/H_LIV-1 cells; remark: listed apart in the source
Description: (§2) Cell based binding of ADC and naked of ADC on human LIV-1 expressing cells were assessed using flow cytometry. Briefly, HEK293/H_LIV-1, both low- and high-expressing H-LIV1-positive cell lines were incubated with ADC and naked of ADC (from 100 nM, 6 folds dilution, 8 points), respectively. After incubation at 4° C. for 60 minutes, the cells were washed with FACS buffer twice, then stained with fluorescent conjugated secondary antibody at 4° C. for 30 minutes. After that the cells were washed twice and analyzed by flow cytometry.

[8] = target: T1, human LIV-1; assay: FACS, BT20/H_LIV-1 Low cells
Description: as §2

[9] = target: T1, human LIV-1; assay: FACS, BT20/H_LIV-1 High cells
Description: as §2

Row | Binder | ADCC reporter EC50 [1] [nM] | ADCC reporter Top (RFU) [1] [RFU] | Internalization EC50 [2] [nM] | Internalization Top (RFU) [2] [RFU] | Cell viability(%) [3] [%] | Cytotoxicity IC50 [3] [nM] | EC50 [4] [nM] | Top (MFI) [4] [MFI] | EC50 [5] [nM] | Top (MFI) [5] [MFI] | Min cell viability %, BT20/H_LIV-1 High [6] [%] | Min cell viability %, BT20/H_LIV-1 Low [6] [%] | Min cell viability %, HEK293/H_LIV-1 [6] [%] | EC50 [7] [nM] | Top (MFI) [7] [MFI] | EC50 [8] [nM] | Top (MFI) [8] [MFI] | EC50 [9] [nM] | Top (MFI) [9] [MFI]
1 | 112H11C12 (antibody, V domains shown, Tested as chimeric antibody; also called 112H1C12) VH: QVQLQQPGAELVRPGASVKLSCKASGYTFTSYWMNWVKQRPGQGLKWIGMIDPSNSKTHYNQMFKDKATLTVDKSSNTAYMQLSSLTSEDSAVYYCARTSTTMATFAYWGQGTLVSVSA VL: DVLMTQTPLSLPVSLGDQASISCRSSQSIVHSNGNTYLEWYLQKPGQSPKLLIYKVSNRFSGVPDRFSGSGSGTDFTLKISRVEAEDLGVYYCFQASHFPLTFGAGTELDLN | 20.5 | 74700 | 13.2 | 643000 | 18 | 2.08 | 20.7 | 8800 | 12 | 2930 |  |  |  |  |  |  |  |  | 
2 | 124H4D11 (antibody, V domains shown, Tested as chimeric antibody) VH: EVPLQQSGAELVRSGASVKLSCTASGFNIKDYYMHWVKQRPEQGLEWIGWIDPENGDTEYDPKFQGKATMTADTSSNTADLQLSSLTSEDTAVYYCNARYYAFDYWGQGTTLTVSS VL: DVLMTQTPLSLPVSLGDQASISCRSSQSIVHSNGNTYLEWYLQKPGQSPKLLIYKVSNRFSGVPDRFSGSGSGTEFTLKISRVEAEDLGVYYCFQGSQVPPTFGGGTRLEIK | 2.1 | 81900 | 4.3 | 474000 | 15.4 | 0.57 | 0.23 | 7980 | 0.2 | 3370 |  |  |  |  |  |  |  |  | 
3 | 136F3D10C10 (antibody, V domains shown, Tested as chimeric antibody) VH: QVQLQQSGPELVKPGASVRIFCKASGYTFTSFHIHWVKQRPGQGLEWIGWIYPGNDNTDHNEKFKGKATLSADKSSSTVYMQLSSLTSEDSAVYFCGRSNYYGPLFAYWGQGTLVTVSA VL: DILMTQTPLSLPVSLGDQASISCRSSQNIVRSNGNTYLEWYLQKPGQSPKVLIYRVSNRFSGVPDRFSGSGSGTDFTLKISRVEAEDLGVYYCFQGSYVPYTFGGGTKLEIK | 4.8 | 83900 | 32.2 | 835000 | 16.3 | 1.21 | 0.85 | 7910 | 0.76 | 3450 |  |  |  |  |  |  |  |  | 
4 | 135C6E7 (antibody, V domains shown, Tested as chimeric antibody) VH: EVQLVESGGGLVQPKGSLKLSCAASGFTFNTYAMNWVRQAPGKGLEWVARIRSKYNSYATYYADSVKDRFTISRDDSQSILYLQMNNLKTEDTAMYYCVRHEDYDGGFAYWGQGTLVTVSA VL: DIVMSQSPSSLAVSVGEKVTMSCKSSQSLFKSRTRKNYLAWYQQKPGQSPKLLIYWASTRESGVPDRFTGSGSGTDFTLTISSVQAEDLAVYYCKESYNLMYTFGGGTKLEIK | 6.4 | 53100 | 12.4 | 675000 | 17.6 | 4.6 | 3.6 | 16500 | 2.69 | 6290 |  |  |  |  |  |  |  |  | 
5 | 108H1D4 (antibody, V domains shown, Tested as chimeric antibody) VH: EVKLVESGGDLVQPGGSRKLSCAASGFTFSDYGMAWFRQAPGKGPEWVAFISNLAYNIYYADTVTGRFTISRENARNTLYLEMSSLRSEDTAMYYCAREGGITTVPATDYFDYWGQGTTLTVSS VL: DIQMTQTTSSLSASLGDRVTFSCRASQDIRNYLNWYQQKPDGTVKLLIYYTSRLHSGVPSRFSGSGSGTDYSLTINNLEQEDLATYFCQQVNALPLTFGAGTKLELK | 8.3 | 139000 | 4.8 | 511000 | 17.3 | 0.7 | 0.9 | 8800 | 130 | 762 |  |  |  |  |  |  |  |  | 
6 | 248H1G3 (antibody, V domains shown, Tested as chimeric antibody) VH: EVQLQQSGPELMKRGASVKISCKTSTFTFTEFTIHWVKQSHGKSLEWIGGINPNTGGTSYNQNFTGKATLTVDKSSITAYMELRSLTSEDSAIYYCAPNWDGYWFFDVWGAGTTVTVSS VL: DIQMTQSPASLSASVGETVTITCRASGNIQNYLAWYQQKQGKSPQLLVYGAKTLADGVPSRFSGSGSGTQFSLKINSLQPEDFGSYYCQHFWSPPLTFGAGTKLELK | 0.5 | 61600 | 4.6 | 357000 | 3.31 | 2.99 | 0.89 | 9640 | 2.05 | 2700 |  |  |  |  |  |  |  |  | 
7 | 282G5A2 (antibody, V domains shown, Tested as chimeric antibody) VH: QVQLQQSGAELVRPGTSVKVSCKASGYALTKYLIEWIKQRPGQGLEWIGVINPGNAGNNYNEKFKGKATLTVDQSSSTAYMQLSSLTSEDSAVYFCARRGRDYAMDNWGQGTSVTVSS VL: EIVLTQSPAIMSASLGEKVTMSCRASSSINYIYWYQQKSDASPKLWIYYTSNLAPGVPARFSGSGSGNSYSLTISSMEDEDAATYYCQQFTSSPLTFGAGTKLELK | 1.2 | 11300 | 41.2 | 227000 | 8.58 | 12.1 | 1.12 | 19700 | 0.87 | 13000 |  |  |  |  |  |  |  |  | 
8 | 286B5E6 (antibody, V domains shown, Tested as chimeric antibody) VH: not shown VL: DIVLTQSPASLAVSLGQRATISCKASQSVDYDGDSYMNWYQQKPGQPPKLLIYAASNLESGIPARFSGSGSGTDFTLNIHPVEEEDAATYYCQQSNEGPYTFGGGTKLEIK | 1.1 | 47800 | 4.6 | 448000 | 4.88 | 1.39 | 0.32 | 8090 | 0.55 | 2490 |  |  |  |  |  |  |  |  | 
9 | 293F10B6 (antibody, V domains shown, Tested as chimeric antibody) VH: QVTLKESGPGMLQPSQTLNLTCSFSGFSLNTSGMGVSWIRQPSGKGLEWLAHIFWDDDKRYNPSLKSRLTISKDVSSNQVFLKITSVDTADTATYFCARRARNNYPWFPYWGQGTLVTVSA VL: DIVLTQSPASLAVSLGQRATISCKASQSVDYDGDSYMNWYQQKPGQPPKLLIYAASNLDSGIPARFSGSGSGTDFTLNIHPMEDEDVATYYCQQSNGAPFTFGGGTKLEIK | 7.9 | 133000 | 6.1 | 495000 | 3.41 | 1.46 | 0.45 | 8100 | 0.98 | 2250 |  |  |  |  |  |  |  |  | 
10 | 5D6B10.z7-Eribulin (antibody, V domains shown, Eribulin drug moiety conjugated; site and chain not stated, Antibody-drug conjugate of 5D6B10.z7; human gamma 1/kappa) VH: QVQLVQSGGGVVQPGRSLRLSCTVSGFSLTTYGIHWVRQSPGKGLEWLGVIWTGGTTDYNAAFISRLTISKDNSKSTVYFQMNSLQAEDTAIYYCARGPSSYWGQGTLVTVSS VL: EIVMTQSPATLSVSPGERATLSCKASQNVDTNVVWYQQKPGQSPRALIYSASYRYSGVPARFSGSGSGTEFTLTISSLQSEDFAVYFCQQYNNYPWTFGQGTKVEIK |  |  |  |  |  |  |  |  |  |  | 31.5 | 42.9 | 21.2 | 0.47 | 98700 | 0.5 | 37200 | 0.87 | 154000
11 | 5D6B10.z7-MMAE (antibody, V domains shown, MMAE drug moiety conjugated; site and chain not stated, Antibody-drug conjugate of 5D6B10.z7; human gamma 1/kappa) VH: QVQLVQSGGGVVQPGRSLRLSCTVSGFSLTTYGIHWVRQSPGKGLEWLGVIWTGGTTDYNAAFISRLTISKDNSKSTVYFQMNSLQAEDTAIYYCARGPSSYWGQGTLVTVSS VL: EIVMTQSPATLSVSPGERATLSCKASQNVDTNVVWYQQKPGQSPRALIYSASYRYSGVPARFSGSGSGTEFTLTISSLQSEDFAVYFCQQYNNYPWTFGQGTKVEIK |  |  |  |  |  |  |  |  |  |  | 28.4 | 43.5 | 15 | 0.51 | 96400 | 0.5 | 35300 | 0.98 | 149000
